From IntAct's records for PubMed 30523278

B1: Protein amnionless (Homo sapiens), Q9BXJ7 (parent)
chain: MGVLGRVLLWLQLCALTQAVSKLWVPNTDFDVAANWSQNRTPCAGGAVEFPADKMVSVLVQEGHAVSDMLLPLDGELVLASGAGFGVSDVGSHLDCGAGEPAVFRDSDRFSWHDPHLWRSGDEAPGLFFVDAERVPCRHDDVFFPPSASFRVGLGPGASPVRVRSISALGRTFTRDEDLAVFLASRAGRLRFHGPGALSVGPEDCADPSGCVCGNAEAQPWICAALLQPLGGRCPQAACHSALRPQGQCCDLCGAVVLLTHGPAFDLERYRARILDTFLGLPQYHGLQVAVSKVPRSSRLREADTEIQVVLVENGPETGGAGRLARALLADVAENGEALGVLEATMRESGAHVWGSSAAGLAGGVAAAVLLALLVLLVAPPLLRRAGRLRWRRHEAAAPAGAPLGFRNPVFDVTASEELPLPRRLSLVPKAAADSTSHSYFVNPLFAGAEAEA

Variants of: B1
Settings: with cubn_human CUBN

Variant	effect of a mutation on the interaction
N35Q	disrupting interaction strength
N35Q;T41I	disrupting interaction strength
S37A	with no effect
S37A;T41I	with no effect
T41I	with no effect

Variants of: B1
Settings: with cubn_human CUBN
Remark: another data set of the same source

Variant	effect of a mutation on the interaction
L59P	disrupting interaction strength
M69K	disrupting interaction strength
C234F	disrupting interaction strength
G254E	disrupting interaction strength
